Laboratory results: patent US20080227085A1, “Methods and Systems for the Identification of Rna Regulatory Sequences and Compounds that Modulate their Function” (priority 2003, published 2008)

Tested on: general translation (reporter mRNA encoding firefly luciferase)
Test: Inhibition of reporter mRNA translation by HCV-IRES RNA fragments in in vitro translation system (RRL, firefly luciferase)
Type: biochemical, rabbit
Conditions: RNA fragments preincubated with in vitro translation system before Fy Luc reporter mRNA; FIG. 3
Protocol: FIG. 3. […] An in vitro translation system was preincubated with the RNA fragments before addition of the reporter mRNA construct encoding firefly luciferase (Fy Luc). The inhibitory effects of each of the fragments on general translation were determined by monitoring luciferase activity upon addition of substrate. […] Domain I not analyzed due to lack of any predicted secondary structure.
The plasmid pGEM3-HCV2b-IRES contains sequence coding for nucleotides 18 to 356 (SEQ ID NO: 1) of HCV-IRES RNA (genotype 2b) inserted at the BamHI restriction endonuclease site of the cloning vector pGEM-3 (Promega Corp., Madison, Wis.; FIG. 2A). RNA secondary structure prediction algorithms, as well as biochemical and genetic data, support a representation of this sequence as shown in FIG. 2B. […]
Translation reactions were performed in vitro to determine the inhibitory effect of HCV IRESIII RNA and fragments thereof and contained (20 μl): 4 μl pre-treated RRL, 4 μl 5× Reaction Buffer A, 5 μl of HCV IRES RNA (1 μM in 20% B), 5 μl mRNA ([…]), and 2 μl 10% DMSO. […] Translation reaction was stopped and Luciferase activity was measured using ViewLux™ (Perkin-Elmer Scientific Instruments, Boston, Mass.; detector set at 10 sec measurement and 6× binning; FIG. 3) upon the addition of 50 μl LucLite-Plus™ luciferase assay reagent (Promega Corp., Madison, Wis.). […]

B1: domain III: domain III RNA fragment of the HCV-IRES UTR (SEQ ID NO: 26), minimal RNA element required for efficient translation inhibition (nucleic acid)
chain: GGCCCCCCCCUCCCGGGAGAGCCAUAGUGGUCUGCGGAACCGGUGAGUACACCGGAAUUACCGGAAAGACUGGGUCCUUUCUUGGAUAAACCCACUCUAUGUCCGGUCAUUUGGGCGUGCCCCCGCAAGACUGCUAGCCGAGUAGCGUUGGGUUGCGAAAGGCCUUGUGGUACUGCCUGAUAGGGUGCUUGCGAGUGCCCCGGGAGGUCUCGUA
modifications: Hepatitis C virus; domain III of HCV-UTR RNA
In the case of B1, the “inhibition of translation of the reporter (luciferase activity)” value is reported as “majority of inhibitory activity resides in domain III”.
